{"source": "paper PMC12048511", "about": "“An asymmetric nautilus-like HflK/C assembly controls FtsH proteolysis of membrane proteins” (The EMBO Journal, 2025)", "biological_target": "T1, FtsH with a C-terminal FLAG epitope (chromosomally encoded) (E. coli, UniProt P0AAI3 1-644)", "T1 construct": "FtsH, E. coli BL21(DE3), product of the chromosomal ftsH gene with a tag appended to its C-terminus; residues 31-97 (periplasmic domain) are modelled in PDB 9CZ2; Homohexamer; one or two hexamers per HflK/C assembly; also called FtsH-FLAG (C-terminal); tagged FtsH; source: E. coli BL21(DE3), chromosomal ftsH locus modified (no overproduction); anti-FLAG M2 resin from membranes solubilised with …", "T1 sequence (P0AAI3 whole entry, the tested form may be a part)": "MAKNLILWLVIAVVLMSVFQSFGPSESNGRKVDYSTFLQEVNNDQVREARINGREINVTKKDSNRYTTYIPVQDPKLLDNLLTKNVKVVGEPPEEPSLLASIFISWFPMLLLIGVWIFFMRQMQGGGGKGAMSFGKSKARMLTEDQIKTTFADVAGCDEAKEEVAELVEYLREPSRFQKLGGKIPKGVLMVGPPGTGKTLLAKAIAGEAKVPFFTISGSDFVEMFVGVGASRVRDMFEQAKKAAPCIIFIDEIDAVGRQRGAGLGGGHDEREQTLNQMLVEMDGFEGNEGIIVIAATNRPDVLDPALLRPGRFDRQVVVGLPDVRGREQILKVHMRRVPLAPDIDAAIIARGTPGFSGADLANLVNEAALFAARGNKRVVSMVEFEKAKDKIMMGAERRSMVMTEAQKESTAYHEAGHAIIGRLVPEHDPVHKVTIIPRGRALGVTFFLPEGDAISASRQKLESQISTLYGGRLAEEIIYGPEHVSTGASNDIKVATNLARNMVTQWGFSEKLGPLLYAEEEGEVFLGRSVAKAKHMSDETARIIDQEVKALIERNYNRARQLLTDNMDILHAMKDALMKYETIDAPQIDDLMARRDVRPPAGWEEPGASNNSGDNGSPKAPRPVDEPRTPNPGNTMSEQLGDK", "test": "co-IP; anti-FLAG M2 resin on solubilised membranes of E. coli with chromosomally FLAG-tagged FtsH (1% DDM or 2% GDN; also detergent-free with Carboxy-DIBMA), eluted with FLAG peptide; no overproduction", "details": "partners not purified"}
{"binder": "HflK (endogenous) (natural protein, E. coli (endogenous in BL21(DE3)), UniProt P0ABC7 1-419, looked up, HflK, E. coli BL21(DE3), SPFH-domain protein; residues 79-355 modelled for most subunits in PDB 9CZ2; 24 alternating HflK and HflC subunits form the nautilus-like assembly; also called HflK/C subunit; source: endogenous, E. coli BL21(DE3), co-purified with FtsH-FLAG on anti-FLAG resin) MAWNQPGNNGQDRDPWGSSKPGGNSEGNGNKGGRDQGPPDLDDIFRKLSKKLGGLGGGKGTGSGGGSSSQGPRPQLGGRVVTIAAAAIVIIWAASGFYTIKEAERGVVTRFGKFSHLVEPGLNWKPTFIDEVKPVNVEAVRELAASGVMLTSDENVVRVEMNVQYRVTNPEKYLYSVTSPDDSLRQATDSALRGVIGKYTMDRILTEGRTVIRSDTQRELEETIRPYDMGITLLDVNFQAARPPEEVKAAFDDAIAARENEQQYIREAEAYTNEVQPRANGQAQRILEEARAYKAQTILEAQGEVARFAKLLPEYKAAPEITRERLYIETMEKVLGNTRKVLVNDKGGNLMVLPLDQMLKGGNAPAAKSDNGASNLLRLPPASSSTTSGASNTSSTSQGDIMDQRRANAQRNDYQRQGE", "values": [{"measurement": "binding result", "value": "binds"}]}
